Laboratory results as given in patent US20260209325A1 (SCHOLAR ROCK, published 2026).
Changes are numbered by the printed parent chain. Each block holds one binder with its values, some of them ahead of it.

Legend:
human pro-myostatin [1] = biological target: T1, human pro-myostatin (human, UniProt O14793 24-375, biotinylated (in the SPR assay)); experiment: cell-based or functional assay
[2] = biological target: recombinant human latent myostatin (human, UniProt O14793 24-375, biotinylated (in the Octet pH assay only)); experiment: cell-based or functional assay
human pro-myostatin [3] = biological target: T1, human pro-myostatin; experiment: SPR Biacore 8K, biotin-antigen captured
murine pro-myostatin = biological target: T2, murine pro-myostatin (mouse, UniProt O08689 25-376, biotinylated (in the SPR assay)); experiment: SPR Biacore 8K, biotin-antigen captured
T2 construct: also called proGDF8 (mouse); mouse pro-myostatin

cyno pro-myostatin = biological target: T3, cyno pro-myostatin (cynomolgus monkey, Biotinylated for capture in the SPR assay (site not stated). The native form is a disulfide-linked homodimer, partly furin-cleaved; one chain is given.); experiment: SPR Biacore 8K, biotin-antigen captured
T3 construct: also called proGDF8 (cynomolgus); cynomolgus monkey pro-myostatin

- IC50 (nM) Latent + mTLL2 [2]: 0.631 nM
B5: Ab134 (antibody, human IgG4 S228P, kappa, V domains shown)
VH: EVQLVESGGGLVQPGGSLRLSCAASGSAFSSYGMSWVRQAPGKGLELVASINSNGGSTYYPDSVKGRFTISRDNAKNSLYLQMNSLRAEDTAVYYCARDLLVEFLKWSHYYGMDVWGQGTTVTVSS
VL: DIVMTQSPLSLPVTPGEPASISCRSSQSLLHSSGHNFLHWYLQKPGQSPQLLIYEVSNRVSGVPDRFSGSGSGTDFTLKISRVEAEDVGVYYCMQQTQYPPTFGGGTKVEIKR

- IC50 (nM) Pro + Furin (human pro-myostatin [1]): 4.31 nM
- IC50 (nM) Latent + mTLL2 [2]: 3.89 nM
- Kd (human pro-myostatin [3]): 2200 pM
- koff (human pro-myostatin [3]): 0.000307 s⁻¹
- kon (human pro-myostatin [3]): 140000 M⁻¹ s⁻¹
- Kd (murine pro-myostatin): 4240 pM
- koff (murine pro-myostatin): 0.000496 s⁻¹
- kon (murine pro-myostatin): 117000 M⁻¹ s⁻¹
- Kd (cyno pro-myostatin): 1300 pM
- koff (cyno pro-myostatin): 0.000534 s⁻¹
- kon (cyno pro-myostatin): 411000 M⁻¹ s⁻¹
B6: Ab129 (antibody, human IgG4 S228P, kappa, V domains shown)
VH: QVQLVQSGAEVKKPGASVKVSCKVSGFNYPRSAIHWVRQAPGKGLEWMGGINPSGEATIYAQKFQGRVTMTEDTSTDTAYMELSSLKSEDTAVYYCARDSSPQWLVTAGVYFYGMDVWGQGTTVTVSS
VL: DIQMTQSPSSVSASVGDRVTITCRASQSISNWLAWYQQKPGKAPKLLIYHASTLQSGVPSRFSGSGSGTDFTLTISSLQPEDFANYYCQQYSSTPWTFGGGTKVEIKR

The next lines start with the binder.

B1: Ab101 (antibody, human IgG4 S228P, kappa, V domains shown)
VH: B5 VH with E103R, K106E
VL: B5 VL
- IC50 (nM) Pro + Furin (human pro-myostatin [1]): 0.251 nM
- IC50 (nM) Latent + mTLL2 [2]: 0.128 nM
- Kd (human pro-myostatin [3]): 78 pM
- koff (human pro-myostatin [3]): 0.000339 s⁻¹
- kon (human pro-myostatin [3]): 4.37e+06 M⁻¹ s⁻¹
- Kd (murine pro-myostatin): 83 pM
- koff (murine pro-myostatin): 0.00036 s⁻¹
- kon (murine pro-myostatin): 4.34e+06 M⁻¹ s⁻¹
- Kd (cyno pro-myostatin): 65 pM
- koff (cyno pro-myostatin): 0.000317 s⁻¹
- kon (cyno pro-myostatin): 4.84e+06 M⁻¹ s⁻¹

B2: Ab107 (antibody, human IgG4 S228P, kappa, V domains shown)
VH: B5 VH with L100Q, E103R, K106E
VL: B5 VL with E55A, V56G, V60P, M94A, Q95H, Q96A, Y99L, P101H
- IC50 (nM) Pro + Furin (human pro-myostatin [1]): 0.195 nM
- IC50 (nM) Latent + mTLL2 [2]: 0.135 nM
- Kd (human pro-myostatin [3]): 60 pM
- koff (human pro-myostatin [3]): 0.000319 s⁻¹
- kon (human pro-myostatin [3]): 5.34e+06 M⁻¹ s⁻¹
- Kd (murine pro-myostatin): 57 pM
- koff (murine pro-myostatin): 0.000455 s⁻¹
- kon (murine pro-myostatin): 8.04e+06 M⁻¹ s⁻¹
- Kd (cyno pro-myostatin): 54 pM
- koff (cyno pro-myostatin): 0.000316 s⁻¹
- kon (cyno pro-myostatin): 5.85e+06 M⁻¹ s⁻¹

B3: Ab103 (antibody, human IgG4 S228P, kappa, V domains shown)
VH: B5 VH with S27Y, A28T, N52T, S53G, N54D, G55A, S57R, L100T, E103R, K106E
VL: B5 VL
- IC50 (nM) Pro + Furin (human pro-myostatin [1]): 0.413 nM
- IC50 (nM) Latent + mTLL2 [2]: 0.506 nM
- Kd (human pro-myostatin [3]): 261 pM
- koff (human pro-myostatin [3]): 0.00151 s⁻¹
- kon (human pro-myostatin [3]): 5.78e+06 M⁻¹ s⁻¹
- Kd (murine pro-myostatin): 379 pM
- koff (murine pro-myostatin): 0.00221 s⁻¹
- kon (murine pro-myostatin): 5.83e+06 M⁻¹ s⁻¹
- Kd (cyno pro-myostatin): 252 pM
- koff (cyno pro-myostatin): 0.00154 s⁻¹
- kon (cyno pro-myostatin): 6.09e+06 M⁻¹ s⁻¹

B4: Ab108 (antibody, human IgG4 S228P, kappa, V domains shown)
VH: B5 VH with E103G, K106Q
VL: B5 VL
- IC50 (nM) Pro + Furin (human pro-myostatin [1]): 0.27 nM
- IC50 (nM) Latent + mTLL2 [2]: 0.237 nM
- Kd (human pro-myostatin [3]): 177 pM
- koff (human pro-myostatin [3]): 0.00105 s⁻¹
- kon (human pro-myostatin [3]): 5.92e+06 M⁻¹ s⁻¹
- Kd (murine pro-myostatin): 218 pM
- koff (murine pro-myostatin): 0.00183 s⁻¹
- kon (murine pro-myostatin): 8.42e+06 M⁻¹ s⁻¹
- Kd (cyno pro-myostatin): 159 pM
- koff (cyno pro-myostatin): 0.00102 s⁻¹
- kon (cyno pro-myostatin): 6.39e+06 M⁻¹ s⁻¹

B7: Ab124 (antibody, human IgG4 S228P, kappa, V domains shown)
VH: QVQLQESGPGLVKPSQTLSLTCTVSGGSISSSPYSWSWIRQPPGKGLEWIGYVDLAGSTDYNPSLKSRVTMSVDTSKNQFSLKVNSVTAADTAVYYCARALSSRSSEWLLDQYTMDVWGQGTTVTVSS
VL: EIVMTQSPATLSLSPGERATLSCRASQSIGINLAWYQQKPGQAPRLLIYGVSNRATGIPARFSGSGSGTDFTLTISSLEPEDFAVYYCQQYGTARLTFGGGTKVEIKR
- IC50 (nM) Latent + mTLL2 [2]: 1.43 nM
- Kd (murine pro-myostatin): 3260 pM
- koff (murine pro-myostatin): 0.000454 s⁻¹
- kon (murine pro-myostatin): 139000 M⁻¹ s⁻¹
